The results in this text go back to patent publication US20210388087A1 (Chugai, published 2021).

In test [1] the target is T1, biotin-labeled cynomolgus monkey CD137 fused to human IgG1 Fc fragment (cynomolgus monkey; human, UniProt Q07011 24-186, limits assumed, biotin-labeled).
T1 construct: also called cyno CD137-Fc; not shown: human IgG1 Fc fragment
T1 chain: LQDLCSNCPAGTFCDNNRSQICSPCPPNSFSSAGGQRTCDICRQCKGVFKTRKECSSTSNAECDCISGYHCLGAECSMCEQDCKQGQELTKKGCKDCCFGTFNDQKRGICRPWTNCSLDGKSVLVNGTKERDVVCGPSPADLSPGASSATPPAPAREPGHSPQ
Briefly: ELISA on streptavidin beads.

In test [2] the target is T2, biotin-labeled human CD137 fused to human IgG1 Fc fragment (human, UniProt Q07011 24-186, biotin-labeled).
T2 construct: also called human CD137-Fc; biotin-human CD137-Fc; not shown: human IgG1 Fc fragment
In words: bead ELISA, 1250 ng IgG, S/N over biotin-human Fc.

In another test the target is T3, Human CD3eg linker (human).
T3 construct: also called recombinant human CD3
T3 chain: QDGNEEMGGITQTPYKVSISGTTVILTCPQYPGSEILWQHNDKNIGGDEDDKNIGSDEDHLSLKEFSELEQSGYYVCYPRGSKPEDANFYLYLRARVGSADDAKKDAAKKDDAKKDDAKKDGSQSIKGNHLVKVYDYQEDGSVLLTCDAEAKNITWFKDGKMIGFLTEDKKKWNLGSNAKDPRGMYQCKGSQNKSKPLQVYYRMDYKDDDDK
In words: SPR (Biacore T200), 37 degrees C, antibody captured by anti-human Fc on CM4 chip, recombinant human CD3 as analyte, 1:1 model.

Test [3] concerns the target T4, Human CD137 ECD (human).
T4 construct: also called recombinant human CD137
In words: SPR (Biacore T200), 37 degrees C, antibody captured by anti-human Fc on CM4 chip, recombinant human CD137 as analyte, 1:1 model.
Description: (§1) (15-2) Evaluation of the Binding of GPC3/CD3/Human CD137 Trispecific Antibodies Binding Affinity of Trispecific Antibodies to Human CD3 and CD137 were Assessed at 37 Degrees C. Using Binding affinity of trispecific antibodies to human CD3 and CD137 were assessed at 37 degrees C. using Biacore T200 instrument (GE Healthcare). Anti-human Fc antibody (GE Healthcare) was immobilized onto all flow cells of a CM4 sensor chip using amine coupling kit (GE Healthcare). Antibodies were captured onto the anti-Fc sensor surfaces, then recombinant human CD3 or CD137 was injected over the flow cell. All antibodies and analytes were prepared in ACES pH 7.4 containing 20 mM ACES, 150 mM NaCl, 0.05% Tween 20, 0.005% NaN3. Sensor surface was regenerated each cycle with 3M MgCl2.

Test [4] deals with T4, Human CD137 ECD. Briefly: SPR (Biacore T200), 37 degrees C, antibody captured by anti-human Fc on CM4 chip, recombinant human CD137 as analyte, 1:1 model; 37 degrees C.
Description: as §1
For test [5], the target named is T2, biotin-labeled human CD137 fused to …. In words: ELISA on streptavidin beads, purified IgG.

T4 sequence (chain, as listed by the source limits assumed): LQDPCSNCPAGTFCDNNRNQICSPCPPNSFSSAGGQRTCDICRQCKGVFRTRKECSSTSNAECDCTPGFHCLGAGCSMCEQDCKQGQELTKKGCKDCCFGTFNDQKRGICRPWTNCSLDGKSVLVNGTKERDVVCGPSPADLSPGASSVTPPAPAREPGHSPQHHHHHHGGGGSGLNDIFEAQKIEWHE
T2 sequence (Q07011 24-186 limits assumed): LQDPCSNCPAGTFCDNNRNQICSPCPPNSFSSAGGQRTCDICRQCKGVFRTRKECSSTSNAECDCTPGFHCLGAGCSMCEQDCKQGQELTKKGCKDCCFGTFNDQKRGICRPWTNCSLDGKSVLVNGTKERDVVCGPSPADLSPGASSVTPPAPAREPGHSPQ
Description for Human CD3eg linker: as §1

B1: dBBDu126 (antibody, human IgG1, V domains shown)
VH: QVQLVESGGGLVQPGRSLRLSCAASGFTFSIAWMHWVRQAPGKGLEWVAQIKDRVNAYEAYYAPSVKGRFTISRDDSKNSIYLQMNSLKTEDTAVYYCRYVHYASYYDLLGYGGVDAWGQGTTVTVSS
VL: DIVMTQSPLSLPVTPGEPASISCRSSQSLVHSNRNTYLHWYQQKPGQAPRLLIYKVSNRFSGVPDRFSGSGSGTDFTLKISRVEAEDVGVYYCGQGTQVPYTFGQGTKLEIK
notes: human IgG1; GLS3000 light chain; also called DADU01_3 #001; DADU01_3_#001
For B1, the results for the binding result in test [1] and in test [2] were “no binding (tested: 25 micro L of 50 ng/micro L purified IgG)” and “binds”, respectively.

B2: GPC3/CD137 × CD3 trispecific antibody (antibody, V domains shown)
VH 1: QVQLQQWGAGLLKPSETLSLTCAVYGGSFSGYYWSWIRQSPEKGLEWIGEINHGGYVTYNPSLESRVTISVDTSKNQFSLKLSSVTAADTAVYYCARDYGPGNYDWYFDLWGRGTLVTVSS
VL 1: EIVLTQSPATLSLSPGERATLSCRASQSVSSYLAWYQQKPGQAPRLLIYDASNRATGIPARFSGSGSGTDFTLTISSLEPEDFAVYYCQQRSNWPPALTFGGGTKVEIK
VH 2: QVQLVESGGGLVQPGRSLRLSCAASGFTFSNAWMHWVRQAPGKGLEWVAQIKDRANSYNTYYAESVKGRFTISRDDSKNSIYLQMNSLKTEDTAVYYCRYVHYTTYAGSSFSYGVDAWGQGTTVTVSS
VL 2: DIVMTQSPLSLPVTPGEPASISCRSSQPLVHSNRNTYLHWYQQKPGQAPRLLIYKVSNRFSGVPDRFSGSGSGTDFTLKISRVEAEDVGVYYCGQGTQVPYTFGQGTKLEIK
VH 3: QVQLVQSGAEVKKPGASVTVSCKASGYTFTDYEMHWIRQPPGEGLEWIGAIDGPTPDTAYSEKFKGRVTLTADKSTSTAYMELSSLTSEDTAVYYCTRFYSYTYWGQGTLVTVSS
VL 3: DIVMTQSPLSLPVTPGEPASISCRSSQPLVHSNRNTYLHWYQQKPGQAPRLLIYKVSNRFSGVPDRFSGSGSGTDFTLKISRVEAEDVGVYYCGQGTQVPYTFGQGTKLEIK
notes: Trispecific mAb AB made by Fab-arm exchange from mAb A (CrossMab, two Fv per arm: Fv A1 and Fv A2) and mAb B (conventional IgG, Fv B); Fc gamma R-silent, deglycosylated Fc; also called GPC3/CD137xCD3
As for B2, in the test with Human CD3eg linker, the Kd was determined as 19.7 nM, the dissociation rate constant (koff) is 0.00161 s⁻¹ and the kon amounted to 81800 M⁻¹ s⁻¹. Further, in the test with Human CD137 ECD [3], the Kd is 37.7 nM and the koff was 0.0206 s⁻¹. Further, the kon with Human CD137 ECD [4] is 547000 M⁻¹ s⁻¹.

B3: dBBDu127 (antibody, human IgG1, V domains shown)
VH: QVQLVESGGGLVQPGRSLRLSCAASGFTFSNAWMHWVRQAPGKGLEWVAQIKDRGQQYNAYYAPSVKGRFTISRDDSKNSIYLQMNSLKTEDTAVYYCHYVHYASASSVLPGYGVDAWGQGTTVTVSS
VL: DIVMTQSPLSLPVTPGEPASISCRSSQSLVHSNRNTYLHWYQQKPGQAPRLLIYKVSNRFSGVPDRFSGSGSGTDFTLKISRVEAEDVGVYYCGQGTQVPYTFGQGTKLEIK
notes: human IgG1; GLS3000 light chain; also called DXDU01_3 #051; DXDU01_3_#051
For B3, the binding result in test [5] was “binds”.
